{
  "source": "patent US20250163182A1",
  "about": "(Janssen / Centocor, published 2025)",
  "binders": {"B1": {"name": "NPP3B815 (bispecific antibody, human IgG1, kappa, L234A L235A)", "heavy 1": "EIVLTQSPATLSASPGERVTLSCSASSSVSYMNWYQQKPGCAPRRWIYDSSKLASGVPARFSGSGSGRDYTLTISSLEPEDFAVYYCQQWSRNPPTFGGGTKVEIKGGGSGGSGGCPPCGGSGGQVQLVQSGAEVKKPGSSVKVSCKASGYTFTRSTMHWVKQAPGQGLEWIGYINPSSAYTNYNQKFQGRVTLTADKSTSTAYMELSSLRSEDTAVYYCASPQVHYDYAGFPYWGCGTLVTVSSEPKSSDKTHTCPPCPAPEAAGGPSVFLFPPKPKDTLMISRTPEVTCVVVSVSHEDPEVKFNWYVDGVEVHNAKTKPREEQYNSTYRVVSVLTVLHQDWLNGKEYKCKVSNKALPAPIEKTISKAKGQPREPQVYTLPPSREEMTKNQVSLWCLVKGFYPSDIAVEWESNGQPENNYKTTPPVLDSDGSFFLYSKLTVDKSRWQQGNVFSCSVMHEALHNHYTQKSLSLSPGK", "heavy 2": "EVQLVESGGGRVKPGGSLRLSCAASGFTFSDYSMNWVRQAPGKGLEWVSSISSISSYVKYADSVKGRFTMSRDNAKNSLFLQMNSLRDEDMAVYYCARGHYFDYWGQGTLVTVSSASTKGPSVFPLAPSSKSTSGGTAALGCLVKDYFPEPVTVSWNSGALTSGVHTFPAVLQSSGLYSLSSVVTVPSSSLGTQTYICNVNHKPSNTKVDKKVEPKSCDKTHTCPPCPAPEAAGGPSVFLFPPKPKDTLMISRTPEVTCVVVSVSHEDPEVKFNWYVDGVEVHNAKTKPREEQYNSTYRVVSVLTVLHQDWLNGKEYKCKVSNKALPAPIEKTISKAKGQPREPQVYTLPPSREEMTKNQVSLSCAVKGFYPSDIAVEWESNGQPENNYKTTPPVLDSDGSFFLVSKLTVDKSRWQQGNVFSCSVMHEALHNRFTQKSLSLSPGK", "light": "not shown", "notes": "HC2 carries the NPP3B56 Fab and the hole T366S, L368A, Y407V; Fc with L234A, L235A, D265S; The CPPC linker cysteines form disulfides with engineered Cys at L42 and H105 (Chothia); also called NPP3B56×CD3B2030-N106A; ENPP3×CD3 (NPP3B815)"}},
  "key": {"human CD3 on T cells [1]": {"molecular_target": "T1, human CD3 on T cells (human, UniProt P07766 23-207)", "T1 construct": "on T cells it stands in the TCR-CD3 complex; also called human T cells; T cells isolated from healthy human donors", "T1 sequence (P07766 23-207 limits assumed)": "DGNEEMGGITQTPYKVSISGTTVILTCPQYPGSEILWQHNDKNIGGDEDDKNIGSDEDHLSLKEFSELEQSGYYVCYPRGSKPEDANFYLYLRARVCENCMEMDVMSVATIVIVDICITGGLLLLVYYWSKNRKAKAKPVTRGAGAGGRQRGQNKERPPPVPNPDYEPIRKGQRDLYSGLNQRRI", "experiment": "flow cytometry on human T cells, donor 110042496"}, "human ENPP3 on cells [2]": {"molecular_target": "T2, human ENPP3 on cells (human, UniProt O14638 1-875)", "T2 construct": "whole, on cells; also called ENPP3 on A704, VMRCRCW, HepG2, TUHR4TKB, TUHR10TKB; CHO-K1 ENPP3 OE", "T2 sequence (looked up)": "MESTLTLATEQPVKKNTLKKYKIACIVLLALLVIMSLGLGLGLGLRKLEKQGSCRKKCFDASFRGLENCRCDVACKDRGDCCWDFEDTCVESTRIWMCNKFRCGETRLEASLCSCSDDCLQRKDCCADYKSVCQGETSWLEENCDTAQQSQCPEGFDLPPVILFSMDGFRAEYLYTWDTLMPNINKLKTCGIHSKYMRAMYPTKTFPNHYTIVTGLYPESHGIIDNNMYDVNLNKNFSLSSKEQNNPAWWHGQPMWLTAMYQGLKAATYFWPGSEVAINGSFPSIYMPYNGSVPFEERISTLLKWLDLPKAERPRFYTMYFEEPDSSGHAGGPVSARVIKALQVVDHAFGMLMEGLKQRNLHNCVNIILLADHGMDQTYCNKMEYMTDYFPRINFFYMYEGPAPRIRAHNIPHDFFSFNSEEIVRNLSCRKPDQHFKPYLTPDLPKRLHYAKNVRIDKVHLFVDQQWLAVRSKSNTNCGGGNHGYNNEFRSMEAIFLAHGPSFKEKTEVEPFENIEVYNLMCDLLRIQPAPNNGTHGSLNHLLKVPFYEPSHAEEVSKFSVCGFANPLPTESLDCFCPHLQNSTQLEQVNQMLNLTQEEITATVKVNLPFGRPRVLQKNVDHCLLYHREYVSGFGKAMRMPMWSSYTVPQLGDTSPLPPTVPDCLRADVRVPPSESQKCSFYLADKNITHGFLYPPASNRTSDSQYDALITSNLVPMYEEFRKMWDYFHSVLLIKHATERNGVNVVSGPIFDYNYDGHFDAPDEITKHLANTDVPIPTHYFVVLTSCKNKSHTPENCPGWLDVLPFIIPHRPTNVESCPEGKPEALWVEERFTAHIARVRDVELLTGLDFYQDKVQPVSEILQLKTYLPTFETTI", "experiment": "flow cytometry on VMRCRCW cells"}, "human ENPP3 on cells [3]": {"molecular_target": "T2, human ENPP3 on cells", "experiment": "cell-based or functional assay"}, "human CD3 on T cells [4]": {"molecular_target": "T1, human CD3 on T cells", "experiment": "flow cytometry on human T cells, donor 888668965"}, "human CD3 on T cells [5]": {"molecular_target": "T1, human CD3 on T cells", "experiment": "flow cytometry on human T cells, donor 110042593"}, "human CD3 on T cells [6]": {"molecular_target": "T1, human CD3 on T cells", "experiment": "flow cytometry on human T cells, donor 110044049"}, "human ENPP3 on cells [7]": {"molecular_target": "T2, human ENPP3 on cells", "experiment": "flow cytometry on A704 cells"}, "[8]": {"molecular_target": "T3, cynomolgus monkey ENPP3 on HepG2-KO cyENPP3 OE cells (cynomolgus monkey, UniProt A0A2K5TKP4 1-874)", "T3 sequence": "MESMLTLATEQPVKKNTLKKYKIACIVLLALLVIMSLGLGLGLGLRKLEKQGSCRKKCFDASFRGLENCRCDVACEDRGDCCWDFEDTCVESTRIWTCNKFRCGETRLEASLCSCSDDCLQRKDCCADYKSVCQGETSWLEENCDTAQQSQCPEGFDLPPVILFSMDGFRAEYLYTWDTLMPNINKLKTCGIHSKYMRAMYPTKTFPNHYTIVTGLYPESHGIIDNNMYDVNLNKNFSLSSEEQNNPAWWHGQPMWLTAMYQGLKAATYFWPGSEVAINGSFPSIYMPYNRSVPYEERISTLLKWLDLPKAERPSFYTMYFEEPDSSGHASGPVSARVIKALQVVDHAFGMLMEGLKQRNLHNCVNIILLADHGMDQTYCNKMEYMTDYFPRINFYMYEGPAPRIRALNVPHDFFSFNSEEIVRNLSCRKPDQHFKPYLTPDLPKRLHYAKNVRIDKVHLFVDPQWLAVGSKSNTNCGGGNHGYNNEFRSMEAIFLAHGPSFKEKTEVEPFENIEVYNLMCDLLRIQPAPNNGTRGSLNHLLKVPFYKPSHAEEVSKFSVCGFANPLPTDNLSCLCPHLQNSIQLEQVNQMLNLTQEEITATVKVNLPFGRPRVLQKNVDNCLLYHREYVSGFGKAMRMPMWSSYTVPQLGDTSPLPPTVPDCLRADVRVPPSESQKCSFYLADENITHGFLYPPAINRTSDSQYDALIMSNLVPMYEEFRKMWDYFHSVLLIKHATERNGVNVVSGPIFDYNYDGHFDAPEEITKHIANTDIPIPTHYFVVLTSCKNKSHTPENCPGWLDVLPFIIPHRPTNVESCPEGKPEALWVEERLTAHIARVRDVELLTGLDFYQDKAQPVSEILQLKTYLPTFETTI", "experiment": "cell-based or functional assay"}},
  "data": [
    {"binder": "B1", "values": [
      {"measurement": "EC50", "setting": "human CD3 on T cells [1]", "result": 147, "unit": "nM"},
      {"measurement": "EC50", "setting": "human ENPP3 on cells [2]", "result": 0.5, "unit": "nM"},
      {"measurement": "T-cell activation (Flow Cytometry) EC50; A704; E:T 3:1", "setting": "human ENPP3 on cells [3]", "result": 0.011, "unit": "nM"},
      {"measurement": "T-cell activation (Flow Cytometry) EC50; HepG2; E:T 3:1", "setting": "human ENPP3 on cells [3]", "result": 0.041, "unit": "nM"},
      {"measurement": "T-cell activation (Flow Cytometry) EC50; VMRCRCW; E:T 3:1", "setting": "human ENPP3 on cells [3]", "result": 0.018, "unit": "nM"},
      {"measurement": "Tumor cell killing (Incucyte) EC50; A704; E:T 3:1", "setting": "human ENPP3 on cells [3]", "result": 0.03, "unit": "nM"},
      {"measurement": "Tumor cell killing (Incucyte) EC50; HepG2; E:T 3:1", "setting": "human ENPP3 on cells [3]", "result": 0.53, "unit": "nM"},
      {"measurement": "Tumor cell killing (Incucyte) EC50; TUHR4TKB; E:T 3:1", "setting": "human ENPP3 on cells [3]", "result": 0.05, "unit": "nM"},
      {"measurement": "Tumor cell killing (Incucyte) EC50; TUHR10TKB; E:T 3:1", "setting": "human ENPP3 on cells [3]", "result": 0.02, "unit": "nM"},
      {"measurement": "Tumor cell killing (Incucyte) EC50; VMRCRCW; E:T 3:1", "setting": "human ENPP3 on cells [3]", "result": 0.13, "unit": "nM"},
      {"measurement": "EC50", "setting": "human CD3 on T cells [4]", "result": 197, "unit": "nM"},
      {"measurement": "EC50", "setting": "human CD3 on T cells [5]", "result": 146, "unit": "nM"},
      {"measurement": "EC50", "setting": "human CD3 on T cells [6]", "result": 188, "unit": "nM"},
      {"measurement": "EC50", "setting": "human ENPP3 on cells [7]", "result": 1.01, "unit": "nM"},
      {"measurement": "Cytotox. EC50; HepG2-KO cyno ENPP3-OE; human T cells; E:T 3:1", "setting": "[8]", "result": 0.079, "unit": "nM"},
      {"measurement": "T-cell activation EC50; HepG2-KO cyno ENPP3-OE; human T cells; E:T 3:1", "setting": "[8]", "result": 0.023, "unit": "nM"}
    ]}
  ]
}
